Assay results reported in patent US20040014194.

T1: Biotin-KSEVNL*DAEFRK-Fluorescein (SEQ ID NO: 3), peptide substrate derived from the sequence of "Swedish" amyloid protein peptide
T1 chain: KSEVNLDAEFRK

B1: mature BACE (SEQ ID NO: 1), Sf9-derived glycosylated human β-secretase (protein)
chain: ETDEEPEEPGRRGSFVEMVDNLRGKSGQGYYVEMTVGSPPQTLNILVDTGSSNFAVGAAPHPFLHRYYQRQLSSTYRDLRKGVYVPYTQGKWEGELGTDLVSIPHGPNVTVRANIAAITESDKFFINGSNWEGILGLAYAEIARPDDSLEPFFDSLVKQTHVPNLFSLQLCGAGFPLNQSEVLASVGGSMIIGGIDHSLYTGSLWYTPIRREWYYEVIIVRVEINGQDLKMDCKEYNYDKSIVDSGTTNLRLPKKVFEAAVKSIKAASSTEKFPDGFWLGEQLVCWQAGTTPWNIFPVISLYLMGEVTNQSFRITILPQQYLRPVEDVATSQDDCYKFAISQSSTGTVMGAVIMEGFYVVFDRARKRIGFAVSACHVHDEFRTAAVEGPFVTLDMEDCGYNIPQTDESTLE
B2: ProBACE (SEQ ID NO: 2), Sf9-derived soluble pro-β-secretase (protein)
chain: TQHGIRLPLRSGLGGAPLGLRLPRETDEEPEEPGRRGSFVEMVDNLRGKSGQGYYVEMTVGSPPQTLNILVDTGSSNFAVGAAPHPFLHRYYQRQLSSTYRDLRKGVYVPYTQGKWEGELGTDLVSIPHGPNVTVRANIAAITESDKFFINGSNWEGILGLAYAEIARPDDSLEPFFDSLVKQTHVPNLFSLQLCGAGFPLNQSEVLASVGGSMIIGGIDHSLYTGSLWYTPIRREWYYEVIIVRVEINGQDLKMDCKEYNYDKSIVDSGTTNLRLPKKVFEAAVKSIKAASSTEKFPDGFWLGEQLVCWQAGTTPWNIFPVISLYLMGEVTNQSFRITILPQQYLRPVEDVATSQDDCYKFAISQSSTGTVMGAVIMEGFYVVFDRARKRIGFAVSACHVHDEFRTAAVEGPFVTLDMEDCGYNIPQTDESTLE

Target: T1, Biotin-KSEVNL*DAEFRK-Fluorescein (SEQ …)

Protein | specificity constant (kcat/Km) [M⁻¹ s⁻¹]
B1 | 1500 ± 100
B2 | 1500 ± 100
